Results: article PMC4284738, “14-3-3 Proteins Participate in Light Signaling through Association with PHYTOCHROME INTERACTING FACTORs” (International Journal of Molecular Sciences, 2014)

Experiments:
Assay in all cases: pull-down; 0.3–20 µg of His-14-3-3κ incubated with MBP or MBP-PIFs in MBP column buffer at 4 °C in dark for 5–6 h, then amylose resin overnight; elution with 10 mM maltose; blot with anti-His and anti-MBP
Details in all cases: both partners purified
[1] = molecular target: T1, maltose-binding protein (MBP)-tagged PIF3 (Arabidopsis thaliana, UniProt O80536 1-524)
T1 construct: Transcription factor PIF3, Arabidopsis thaliana, AGI AT1G09530; also called MBP-PIF3; source: E. coli BL21 (DE3), purified (amylose resin)
T1 sequence (looked up): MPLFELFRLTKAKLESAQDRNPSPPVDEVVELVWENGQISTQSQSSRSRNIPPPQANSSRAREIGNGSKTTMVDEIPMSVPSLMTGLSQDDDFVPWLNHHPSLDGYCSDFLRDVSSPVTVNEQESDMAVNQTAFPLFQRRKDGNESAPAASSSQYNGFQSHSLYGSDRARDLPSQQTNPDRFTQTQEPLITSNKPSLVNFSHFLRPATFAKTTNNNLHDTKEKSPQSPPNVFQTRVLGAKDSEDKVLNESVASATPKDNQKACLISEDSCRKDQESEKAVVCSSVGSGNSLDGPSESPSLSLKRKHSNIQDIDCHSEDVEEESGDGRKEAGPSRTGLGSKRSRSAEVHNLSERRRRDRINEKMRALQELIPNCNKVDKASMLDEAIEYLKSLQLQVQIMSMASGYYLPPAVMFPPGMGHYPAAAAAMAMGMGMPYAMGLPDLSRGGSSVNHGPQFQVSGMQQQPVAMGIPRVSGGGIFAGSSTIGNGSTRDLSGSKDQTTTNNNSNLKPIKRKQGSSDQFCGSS

[2] = molecular target: T2, MBP-PIF3ala1+2 (PIF3 S23A S115A S116A) (Arabidopsis thaliana, UniProt O80536 1-524, S23A | S115A | S116A)
T2 construct: Transcription factor PIF3, Arabidopsis thaliana, AGI AT1G09530; ala1: Ser-23 to Ala; ala2: Ser-115 and Ser-116 to Ala; The cloning of the mutant into pMAL is not described on its own; source: E. coli BL21 (DE3), purified (amylose resin)
T2 sequence (looked up): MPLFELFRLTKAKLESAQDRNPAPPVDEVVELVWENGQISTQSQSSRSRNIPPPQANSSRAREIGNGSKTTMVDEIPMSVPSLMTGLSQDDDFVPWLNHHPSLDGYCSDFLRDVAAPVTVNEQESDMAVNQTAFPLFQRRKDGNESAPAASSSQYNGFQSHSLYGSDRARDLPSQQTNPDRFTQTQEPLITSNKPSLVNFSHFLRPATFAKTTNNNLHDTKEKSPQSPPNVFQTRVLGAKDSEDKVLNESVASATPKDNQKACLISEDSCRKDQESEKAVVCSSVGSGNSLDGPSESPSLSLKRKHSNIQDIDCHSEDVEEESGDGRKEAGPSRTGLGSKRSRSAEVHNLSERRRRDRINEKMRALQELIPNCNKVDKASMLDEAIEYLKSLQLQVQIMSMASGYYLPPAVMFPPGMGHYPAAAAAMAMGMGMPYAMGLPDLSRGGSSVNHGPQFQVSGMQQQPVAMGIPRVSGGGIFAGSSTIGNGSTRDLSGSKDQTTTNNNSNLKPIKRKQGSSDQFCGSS

[3] = molecular target: T3, MBP-PIF1 (Arabidopsis thaliana, UniProt Q8GZM7 1-478)
T3 construct: Transcription factor PIF1, Arabidopsis thaliana; source: E. coli BL21 (DE3), purified (amylose resin)
T3 sequence (looked up): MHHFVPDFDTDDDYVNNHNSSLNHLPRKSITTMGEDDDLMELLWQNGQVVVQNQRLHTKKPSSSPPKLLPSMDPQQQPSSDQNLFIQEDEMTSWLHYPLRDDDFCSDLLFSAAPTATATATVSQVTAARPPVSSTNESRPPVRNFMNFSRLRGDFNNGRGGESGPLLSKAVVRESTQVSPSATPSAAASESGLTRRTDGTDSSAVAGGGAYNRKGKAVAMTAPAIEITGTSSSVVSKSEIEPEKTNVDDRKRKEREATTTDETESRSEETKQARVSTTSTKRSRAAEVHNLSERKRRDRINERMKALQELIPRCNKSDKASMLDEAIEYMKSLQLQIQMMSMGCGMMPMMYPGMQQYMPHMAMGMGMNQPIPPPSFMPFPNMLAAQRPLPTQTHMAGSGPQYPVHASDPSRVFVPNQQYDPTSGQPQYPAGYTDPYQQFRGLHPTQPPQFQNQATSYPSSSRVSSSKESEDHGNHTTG

Measured: binding result

B1: His-tagged 14-3-3κ (natural protein, Arabidopsis thaliana, UniProt P48348 1-248, looked up)
chain: MATTLSRDQYVYMAKLAEQAERYEEMVQFMEQLVSGATPAGELTVEERNLLSVAYKNVIGSLRAAWRIVSSIEQKEESRKNEEHVSLVKDYRSKVETELSSICSGILRLLDSHLIPSATASESKVFYLKMKGDYHRYLAEFKSGDERKTAAEDTMIAYKAAQDVAVADLAPTHPIRLGLALNFSVFYYEILNSSEKACSMAKQAFEEAIAELDTLGEESYKDSTLIMQLLRDNLTLWTSDMQEQMDEA
notes: 14-3-3 kappa isoform, Arabidopsis thaliana; also called HIS-14-3-3κ; His-14-3-3κ
binds: all assays above
